The term Kd denotes the free concentration of one partner at which half of the binding sites on the other are occupied at equilibrium, for simple one-to-one binding. Read a high Kd as lower affinity. As a reminder, the koff is the first-order rate constant of dissociation. Read a low koff as slow dissociation. One may read the kon as a measure of how fast the partners come together. A higher kon goes with fast association.

Results on 2 molecules are retold here after patent CN108640991A (JIANGSU QYUNS BIOMEDICINE CO LTD, dated 2018).

This experiment deals with T1, 人白介素17A (Human Interleukin-17A) (human, UniProt Q16552 24-155).
T1 construct: also called hIL-17A; IL-17A
Briefly: SPR Biacore T200, 25°C, antibody captured on Protein A CM5 chip, antigen in solution, 1:1 model. For orientation: In SPR one partner is held on a chip, and binding of the other changes the refractive index at the surface.

T1 sequence (Q16552 24-155): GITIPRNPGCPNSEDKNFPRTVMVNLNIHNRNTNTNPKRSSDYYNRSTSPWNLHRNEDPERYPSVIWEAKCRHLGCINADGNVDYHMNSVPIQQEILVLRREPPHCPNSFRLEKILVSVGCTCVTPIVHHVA

B1: 抗人白介素17A单克隆抗体QX002N (antibody, V domains shown)
VH: EVQLQESGPGLVKPSETLSLTCTVSGIDLSLFYMSWIRQPPGKGLEWIGTIHEVASSYYASWAKGRVTISKDTSKNQFSLKLSSVTAADTAVYYCARETYSSRYPYPNIWGQGTLVTVSS
VL: DIQMTQSPSSVSASVGDRVTITCQASQNIGGSLAWYQQKPGKAPKLLIYGASSLASGVPSRFSGSGSGTDFTLTISSLQPEDFATYYCQSYNTISTYGLAFGGGTKVEIK
notes: Humanised from rabbit clone 37#; also called 37-5
On to B1, for which the Kd was 7.07 pM, the koff was found to be 2.36e-05 s⁻¹ and the kon is 3.35e+06 M⁻¹ s⁻¹.

B2: Ixekizumab (antibody, V domains shown)
VH: QVQLVQSGAEVKKPGSSVKVSCKASGYSFTDYHIHWVRQAPGQGLEWMGVINPMYGTTDYNQRFKGRVTITADESTSTAYMELSSLRSEDTAVYYCARYDYFTGTGVYWGQGTLVTVSS
VL: DIVMTQTPLSLSVTPGQPASISCRSSRSLVHSRGNTYLHWYLQKPGQSPQLLIYKVSNRFIGVPDRFSGSGSGTDFTLKISRVEAEDVGVYYCSQSTHLPFTFGQGTKLEIKR
Take B2: binding was put at a Kd of 15.4 pM, the koff is 2.58e-05 s⁻¹ and the kon stood at 1.7e+06 M⁻¹ s⁻¹.
